Laboratory results published in patent US20220174981A1, “PROLINE TOLERANT TRIPEPTIDYL PEPTIDASES AND USES THEREOF” (DuPont Nutrition Biosciences APS, priority 2014, published 2022).

Legend:
H-Ala-Ala-Ala-pNA = assay: Exopeptidase Broad-Specificity Assay (EBSA) with H-Ala-Ala-Ala-pNA; pH and temperature profile; assay type: biochemical; settings: H-Ala-Ala-Ala-pNA; 20 mM Na-glycine pH 2.0-4.0 or Na-acetate pH 4.0-5.5
Description: 10 μL of the chromogenic peptide solution (10 mM H-Ala-Ala-Ala-pNA dissolved in dimethyl sulfoxide (DMSO); MW=387.82; Bachem, Switzerland) were added to 130 μl Na-acetate (20 mM, adjusted to pH 4.0 with acetic acid) in a microtiter plate and heated for 5 minutes at 40° C. 10 μL of appropriately diluted enzyme was added and the absorption was measured in a MTP reader (Versa max, Molecular Devices, Denmark) at 405 nm. One katal of proteolytic activity was defined as the amount of enzyme required to release 1 mole of p-nitroaniline per second.
The chromogenic peptide H-Ala-Ala-Ala-pNA (MW=387.82; Bachem, Switzerland) was used to determine the activity of proline tolerant tripeptidyl peptidase in the samples produced as described above. The assay was conducted as follows, 10 μL of the chromogenic peptide solution (10 mM dissolved in dimethyl sulfoxide; DMSO) were added to 130 μl Na-acetate (20 mM, adjusted to pH 4.0 with acetic acid) in a microtiter plate and heated for 5 minutes at 40° C. 10 μL of appropriately diluted enzyme was added and the absorption was measured in an MTP reader (Versa max, Molecular Devices, Denmark) at 405 nm. One katal of proteolytic activity was defined as the amount of enzyme required to release 1 mole of p-nitroaniline per second.
The proline tolerant tripeptidyl peptidase assay described with H-Ala-Ala-Ala-pNA substrate above with modification of using the buffers 20 mM Na-glycine (pH 2.0, 2.5, 3.0, 3.5 and 4.0) or 20 mM Na-acetate buffer (pH 4.0, 4.5 and 5.5) was used to determine the pH profile of proline tolerant tripeptidyl peptidase TRI083 (FIG. 2) and TRI045 (FIG. 24)..
The proline tolerant tripeptidyl peptidase assay described above was used at temperatures 25, 50, 55, 60, 65, 70, 75, 80 and 85° C.
For proline tolerant tripeptidyl peptidase the chromogenic peptide H-Ala-Ala-Ala-pNA was used. The assay was conducted as follows, 27.5 μL of appropriately diluted enzyme was added to 200 μl McIlvaine buffer (20 mM, pH 4.0). After incubation at 50° C. for 5 min, 12.5 μL of the chromogenic peptide solution (5 mg/mL dissolved in dimethyl sulfoxide (DMSO); Sigma-Aldrich, Denmark) were added to the reaction mixture. The reaction was terminated by adding 50 μL of 0.5 M trichloroacetic acid (TCA; Sigma-Aldrich, Denmark). After centrifugation (15,000×g, 5 min), 240 μL of the solution were transferred to a microtiter plate (MTP; Kisker-biotech, Germany) and the absorption was measured in an MTP reader (Molecular Devices, Denmark) at 405 nm. One katal of proteolytic activity was defined as the amount of enzyme required to release 1 mol of p-nitroaniline per second.

[1] = Stability of TRI045 in the presence of pepsin; assay type: biochemical, Swine; settings: 500 units pepsin/mL, pH3.5, 40° C., 60 min
Description: Pepsin solution: Swine pepsin from Sigma (P7000, 674 Sigma units/mg, www.sigma.com) was used in this example and prepared in MilliQ water at 10000 Sigma unit/ml at 10000 Sigma unit/mL
Pre-incubation mixture contained: 2.5 μl TRI045 sample, 95 μl GAT buffer (50 mM glycine-50 mM acetic acid-50 mM Tris, pH3.5), 5 μl pepsin in milliQ water (10000 Sigma unit/ml) (final pepsin unit concentration: 500 Sigma unit/ml reaction mixture) in a half bottom area 96 well Corning MTP. For control, the pre-incubation mixture contained 5 μl water instead of 5 μl pepsin. The mixture was incubated at 40° C. for 60 min and then kept on ice. For assaying the residual activity, the assay mixture contained the pre-incubation mixture 5 μl, 0.1M acetic acid-sodium acetate (pH4.0) 85 μl, 5 μl H-Ala-Ala-Phe-pNA (2.5 mg/ml) from BACHEM.com (L-1095.0250). The 410 nm reading was followed in a microplate reader every 0.5 min at 30° C. N=2.

H-Ala-Ala-Phe-pNA = assay: Effect of pH on TRI045 activity with H-Ala-Ala-Phe-pNA; assay type: biochemical
Description: The tripeptide substrate H-Ala-Ala-Phe-pNA (AAF-pNA from BACHEM.com, L-1095.0250) for sedolisin was prepared at 2.5 mg/ml in DMSO. The reaction was prepared by mixing 8.5 μl AAF-pNA, 7 μl DMSO, 32 μl water and 50 μl buffer with pH4.14-6.57, and 0.8 μl or 1.5 ul TRI045. The reaction was started at 30° C. by the addition of the enzyme TRI045. The initial reaction rate was recorded using a microplate reader at every 0.5 min interval at 410 nm in 96 well plate.

corn soy feed = assay: TRI045 plus pepsin and pancreatin on corn soy feed, OPA and BCA assays; assay type: biochemical; settings: TRI045 1000 ppm, swine pepsin and pancreatin present
Description: The in vitro reaction system contained 140 μl 10% (w/v) corn soy feed slurry (14 mg corn soy feed), 10 μl TRI045 in 50m M MES-NaOH pH 6.0, 10 μl swine pepsin (1.14 U/μL in water). The reaction was incubated with shaking at 40° C. for 45 min and subsequently 34 μl swine pancreatin (0.4636 mg/mL in 1M Na-bicarbonate) were added and further incubated for additional 60 min. After incubation, the 96-well plate was centrifuged and supernatants were used for residual TRI045 activity assay and for OPA and BCA assays (see below).
Reference: P. M. Nielsen, D. Petersen and C. Dambmann. Improved Method for Determining Food Protein Degree of Hydrolysis. Journal of Food Science. 66 (2001) 642-646.
For OPA assay the following procedure was carried out.
To quantify the protein concentrations of each protease samples, the Pierce BCA Protein Assay Reagent Kit (Thermo Scientific, cat no. 23228) was used. The TRI045 sample was not purified before quantification. The Pierce BCA Protein Assay Kit is a detergent-compatible formulation based on bicinchoninic acid (BCA) for colorimetric detection and quantification of total proteins. This method combines the well-known reduction of Cu^2+ to Cu^1+ by protein in an alkaline medium with the highly sensitive and selective colorimetric detection of the cuprous cat ion (Cu^+1) using a unique reagent containing bicinchoninic acid. […]

AAF-pNA = assay: Residual activity on AAF-pNA after in vitro digestion with pepsin and pancreatin; assay type: biochemical
Description: In order to test the stability of TRI045 under the in vitro assay conditions described above (incubation in the presence of pepsin at pH3 for 45 min at 40° C. and subsequently in the presence of pancreatin for 60 min at 40° C.). The residual activity of TRI045 was subsequently assayed. The reaction mixture contained 50 μl buffer 0.1M HAC-NaAC (pH5.0), 10 μl the supernatant, and 5 μl AAF-pNA (5 mg/ml in DMSO). The reaction rate was followed at 410 nm and 30° C. every 30 seconds using a microplate reader. As a control, a commercial protease at the same concentration of 1000 ppm was used.

B1: TRI045: tripeptidyl peptidase having pre-pro sequence SEQ ID No. 98 and mature protein SEQ ID No. 99 (protein, listed as Arthroderma benhamiae)
chain: CRSLVTTACLRELYGLGDRVTQARDDNRIGVSGFLEEYAQYRDLELFLSRFEPSAKGFNFSEGLIAGGKNTQGGPGSSTEANLDMQYVVGLSHKAKVTYYSTAGRGPLIPDLSQPSQASNNNEPYLEQLRYLVKLPKNQLPSVLTTSYGDTEQSLPASYTKATCDLFAQLGTMGVSVIFSSGDTGPGSSCQTNDGKNATRFNPIYPASCPFVTSIGGTVGTGPERAVSFSSGGFSDRFPRPQYQDNAVKDYLKILGNQWSGLFDPNGRAFPDIAAQGSNYAVYDKGRMTGVSGTSASAPAMAAIIAQLNDFRLAKGSPVLGFLNPWIYSKGFSGFTDIVDGGSRGCTGYDIYSGLKAKKVPYASWNATKGWDPVTGFGTPNFQALTKVLP
Optimum pH (H-Ala-Ala-Ala-pNA): 4.0
residual activity [1]: over 90%
activity at around pH4 and pH6.5 (H-Ala-Ala-Phe-pNA; AAF-pNA, 30° C.): around 50%
Relative activity with pH 5.01 as 100% (H-Ala-Ala-Phe-pNA; pH 4.1, 0.1M HAC-NaAC): 59.4%
Relative activity with pH 5.01 as 100% (H-Ala-Ala-Phe-pNA; pH 4.6, 0.1M HAC-NaAC): 81.7%
Relative activity with pH 5.01 as 100% (H-Ala-Ala-Phe-pNA; pH 5.0, 0.1M HAC-NaAC): 100.0%
Relative activity with pH 5.01 as 100% (H-Ala-Ala-Phe-pNA; pH 5.6, 0.1M HAC-NaAC): 80.7%
Relative activity with pH 5.01 as 100% (H-Ala-Ala-Phe-pNA; pH 6.0, 0.1M Mes-NaOH): 72.2%
Relative activity with pH 5.01 as 100% (H-Ala-Ala-Phe-pNA; pH 6.6, 0.1M Mes-NaOH): 48.5%
increase of release of free amino groups from corn soy feed (OPA value) (corn soy feed): 9%
increase of protein solubility (corn soy feed; BCA): 5%
time stable to pepsin and pancreatin (AAF-pNA; 40° C.): at least 100 minutes
reaction rate (AAF-pNA; 1000 ppm, after pepsin 45 min and pancreatin 60 min at 40° C., control 4.3 mOD/min): 19.3 mOD/min
stability to pepsin and pancreatin in the presence of corn soy feed (AAF-pNA; 105 min at 40° C., pH range of 3 to 7): stable to pepsin and pancreatin
residual activity on AAF-pNA relative to the commercial protease (AAF-pNA; after subtraction of the control (4.3 mOD/min)): 2.2 times
